Laboratory results taken from US20160200813A1.

What was measured:
[1] = target: Mouse LRP-8 expressed on HEK293 cells (mouse) (UniProt Q924X6); assay: FACS, mouse LRP8 cells
[2] = target: CR1 cyclic peptide of human LRP-8 (human); assay: ELISA using CR1 peptide
[3] = target: Cynomolgus monkey LRP-8 expressed on HEK293 cells (cynomolgus monkey); assay: FACS, cyno LRP8 cells

Negative IgG control (Table 20) (antibody)
FACS (ratio +/-) [1]: 1
OD450 [2]: 0.08 OD450
FACS (ratio +/-) [3]: 0.8
